Here are results for 26 molecules from patent US20260167959A1, “APTAZYME-BASED REGULATABLE GENE EXPRESSION SYSTEMS” (REJUVENATE BIO INC, priority 2022, published 2026).

Changes are numbered by the printed parent chain.

The data set has as its system Renilla luciferase RNA. Kind of data set: Barcoded aptazyme variant library screen: un-cleaved Renilla luciferase RNA by barcode read counts, HEK293-T cells. To be noted: un-cleaved Renilla luciferase RNA, HEK293-T cells cultured with 1 mM theophylline (ON) over without theophylline (OFF); barcode read counts, triplicate. In kind it is cell-based. The source says:
Based on the findings from Example 1, an aptazyme variant library was generated from the T3H48 ribozyme with one of seven variant theophylline aptamers inserted sequentially after each nucleotide of the DNA sequence encoding the T3H48 ribozyme sequence. […] The seven variant theophylline aptamers vary in their communication channels, which are the ribonucleotides of the aptamer that attach to the ribozyme sequence (see, Table 2).
The library was barcoded with unique sequences of nine nucleotides flanked by forward and reverse primer amplification sequences.
The aptazyme library was then PCR amplified and cloned into the psiCHECK™-2 dual luciferase vector in the 3′ UTR of the Renilla luciferase gene. […] The next day, the cells were isolated followed by DNA and RNA extraction using standard methods. The purified RNA was then converted to cDNA and the barcoded portion of the aptazyme library was PCR amplified. Similarly, the DNA was PCR amplified and all the samples were sequenced. All experimental conditions (with theophylline and without theophylline) were performed in triplicate. The read count for each barcode was determined with a custom build code and the data was normalized to identify the un-cleaved fractions of the Renilla luciferase RNA from cells that were cultured in the presence or absence of theophylline for each aptazyme, which was used to obtain the fold-change between ON- and OFF-states (FIG. 2).

B1: RA291 (nucleic acid)
DNA: GCTGTCACCGGAATACCAGCATCGTCTTGATGCCCTTGGAAGTCCGGTCTGATGAGTCCCATAAGGACGAAACAGC
modifications: expressed or natural sequence
With B1, the “Fold change in RNA expression between the ON state and the OFF state” value (from here on “Fold change”) came to 1.0 fold.

B2: RA282 (nucleic acid)
DNA: GCGCGTCCTGGATTCGCGAGAATACCAGCATCGTCTTGATGCCCTTGGAAGTCTCGCGGAAACGCGTACATCCAGCTGACGAGTCCCAAATAGGACGAAACGCGC
modifications: expressed or natural sequence
As for B2, the “Fold change” value came out at 1.0 fold.

B3: RA288 (nucleic acid)
DNA: GCGCGTCCTGGATTCGCGGAAACGCGTACATCCAGCTGACGAGTCCCAAATAAGTGATACCAGCATCGTCTTGATGCCCTTGGCAGCACTGGACGAAACGCGC
modifications: expressed or natural sequence
As for B3, the “Fold change” value was found to be 1.0 fold.

B4: RA002 (nucleic acid)
DNA: GCGCGTCCTGGATTCGCGGAAACGCGTACATCCAGCTGACGAGTCCCAAATAGGACGAAACGAGAATACCAGCATCGTCTTGATGCCCTTGGAAGTCTCGCGCGC
modifications: expressed or natural sequence
With B4, the “Fold change” value is reported as >6 fold.

B5: RA027 (nucleic acid)
DNA: GCGCGTCCTGGATTCGCGGAAACGCGTACAGTGATACCAGCATCGTCTTGATGCCCTTGGCAGCACTATCCAGCTGACGAGTCCCAAATAGGACGAAACGCGC
modifications: expressed or natural sequence
Take B5: the “Fold change” value came to 2.4 fold.

B6: RA276 (nucleic acid)
DNA: GCGCGTCCTGGATTCGCGGAAACGCGTACATCCAGCTGACGAAGAATACCAGCATCGTCTTGATGCCCTTGGAAGTCTGTCCCAAATAGGACGAAACGCGC
modifications: expressed or natural sequence
On to B6, for which the “Fold change” value amounted to 1.0 fold.

B7: RA284 (nucleic acid)
DNA: GCGCGTCCTGGATTCGCGGAAACGGAATACCAGCATCGTCTTGATGCCCTTGGAAGTCCGCGTACATCCAGCTGACGAGTCCCAAATAGGACGAAACGCGC
modifications: expressed or natural sequence
B7: the “Fold change” value is recorded as 1.0 fold.

B8: RA274 (nucleic acid)
DNA: GCGCGTCCTGGATTCGCGGAAACGCGTACATCCAGCTGACGAGTCCCAAAGAGAATACCAGCATCGTCTTGATGCCCTTGGAAGTCTCTAGGACGAAACGCGC
modifications: expressed or natural sequence
With B8, the “Fold change” value is reported as 1.0 fold.

B9: RA296 (nucleic acid)
DNA: GCGCGTCCTGGATTCGCGGAAACGCGTACATCCAGCTGACGAGTCCCAAATAGGAGAATACCAGCATCGTCTTGATGCCCTTGGAAGTCTACGAAACGCGC
modifications: expressed or natural sequence
In the case of B9, the “Fold change” value is 1.0 fold.

B10: RA290 (nucleic acid)
DNA: GCGCGTCCTGGATTCGCGGAAACGCGTACATCCAGCTGACGACCGGAATACCAGCATCGTCTTGATGCCCTTGGAAGTCCGGGTCCCAAATAGGACGAAACGCGC
modifications: expressed or natural sequence
As to B10, the “Fold change” value stood at 1.0 fold.

B11: RA283 (nucleic acid)
DNA: GCGCGTCCTGGAAGAATACCAGCATCGTCTTGATGCCCTTGGAAGTCTTTCGCGGAAACGCGTACATCCAGCTGACGAGTCCCAAATAGGACGAAACGCGC
modifications: expressed or natural sequence
On to B11, for which the “Fold change” value turned out to be 1.0 fold.

B12: RA285 (nucleic acid)
DNA: GCGCGTCCTGGATTCGCGGAAACGCAGTGATACCAGCATCGTCTTGATGCCCTTGGCAGCACTGTACATCCAGCTGACGAGTCCCAAATAGGACGAAACGCGC
modifications: expressed or natural sequence
Turning to B12, the “Fold change” value was found to be 1.0 fold.

B13: RA278 (nucleic acid)
DNA: GCGCGTCCTGGATTCGAGTGATACCAGCATCGTCTTGATGCCCTTGGCAGCACTCGGAAACGCGTACATCCAGCTGACGAGTCCCAAATAGGACGAAACGCGC
modifications: expressed or natural sequence
For the molecule B13, the “Fold change” value came out at 1.0 fold.

B14: RA279 (nucleic acid)
DNA: GCGCGTCCTGGATTCGCGGAAACGCGTACATCCAGCTGACGAGTCCCAAATAGGACGACGAGAATACCAGCATCGTCTTGATGCCCTTGGAAGTCTCGAACGCGC
modifications: expressed or natural sequence
For the molecule B14, the “Fold change” value is reported as 1.0 fold.

B15: RA281 (nucleic acid)
DNA: GCGCGTCCTGGATTCGCGGAAACGCGTACATCCAGCTGACGAGTCCCAAATACGAGAATACCAGCATCGTCTTGATGCCCTTGGAAGTCTCGGGACGAAACGCGC
modifications: expressed or natural sequence
Consider B15, for which the “Fold change” value is recorded as 1.0 fold.

B16: RA286 (nucleic acid)
DNA: GCGCGTCCTGGATTCGCGGAAAAGAATACCAGCATCGTCTTGATGCCCTTGGAAGTCTCGCGTACATCCAGCTGACGAGTCCCAAATAGGACGAAACGCGC
modifications: expressed or natural sequence
As for B16, the “Fold change” value was 1.0 fold.

B17: RA295 (nucleic acid)
DNA: B16 DNA with A23G, T58C
modifications: expressed or natural sequence
B17: the “Fold change” value was 1.0 fold.

B18: RA293 (nucleic acid)
DNA: GCGGGAATACCAGCATCGTCTTGATGCCCTTGGAAGTCCCGTCCTGGATTCGCGGAAACGCGTACATCCAGCTGACGAGTCCCAAATAGGACGAAACGCGC
modifications: expressed or natural sequence
In the case of B18, the “Fold change” value stood at 1.0 fold.

B19: RA289 (nucleic acid)
DNA: GCGCGTCCTGGATTCGCGGAAACGCGTACATCCAGGAATACCAGCATCGTCTTGATGCCCTTGGAAGTCCGCTGACGAGTCCCAAATAGGACGAAACGCGC
modifications: expressed or natural sequence
On to B19, for which the “Fold change” value turned out to be 1.0 fold.

B20: RA275 (nucleic acid)
DNA: GCGCGTCCTGGATTGAGAATACCAGCATCGTCTTGATGCCCTTGGAAGTCTCCGCGGAAACGCGTACATCCAGCTGACGAGTCCCAAATAGGACGAAACGCGC
modifications: expressed or natural sequence
Turning to B20, the “Fold change” value was 1.0 fold.

B21: RA280 (nucleic acid)
DNA: GCGCGTCCTGGATTCGCGGAAACGCGTACATCCAGCTGACGAGTCCCAAATAGGAGGAATACCAGCATCGTCTTGATGCCCTTGGAAGTCCCGAAACGCGC
modifications: expressed or natural sequence
Take B21: the “Fold change” value came to 1.0 fold.

B22: RA277 (nucleic acid)
DNA: GCGCGTCCTGGATTCGCGGAAACGCGTACATCCGAGAATACCAGCATCGTCTTGATGCCCTTGGAAGTCTCAGCTGACGAGTCCCAAATAGGACGAAACGCGC
modifications: expressed or natural sequence
As for B22, the “Fold change” value worked out at 1.0 fold.

B23: RA294 (nucleic acid)
DNA: GCGCGTCCTGGATTCGCGGAAACGAGAATACCAGCATCGTCTTGATGCCCTTGGAAGTCTCGCGTACATCCAGCTGACGAGTCCCAAATAGGACGAAACGCGC
modifications: expressed or natural sequence
As to B23, the “Fold change” value was found to be 1.0 fold.

B24: RA287 (nucleic acid)
DNA: GCGCGTCCTGGATTCGCGGAAACGCGTACATCCAGCTGACGAAGTGATACCAGCATCGTCTTGATGCCCTTGGCAGCACTGTCCCAAATAGGACGAAACGCGC
modifications: expressed or natural sequence
Consider B24, for which the “Fold change” value stood at 1.0 fold.

B25: RA028 (nucleic acid)
DNA: B24 DNA with A43C, T45G, G46A, C74A, C77T, A78C, T80G
modifications: expressed or natural sequence
As to B25, the “Fold change” value stood at 2.3 fold.

B26: RA292 (nucleic acid)
DNA: GCGCGTCGGAATACCAGCATCGTCTTGATGCCCTTGGAAGTCCGCCTGGATTCGCGGAAACGCGTACATCCAGCTGACGAGTCCCAAATAGGACGAAACGCGC
modifications: expressed or natural sequence
As to B26, the “Fold change” value came out at 1.0 fold.
